In US20210388087A1 (Chugai, published 2021):

target: T1, Human CD137 ECD (human); experiment: Biacore SPR, vs parent H183/L072
T1 construct: entry includes C-terminal His-tag and biotin acceptor peptide; also called human CD137 extracellular domain; 4-1BB
T1 sequence (chain, as listed by the source limits assumed): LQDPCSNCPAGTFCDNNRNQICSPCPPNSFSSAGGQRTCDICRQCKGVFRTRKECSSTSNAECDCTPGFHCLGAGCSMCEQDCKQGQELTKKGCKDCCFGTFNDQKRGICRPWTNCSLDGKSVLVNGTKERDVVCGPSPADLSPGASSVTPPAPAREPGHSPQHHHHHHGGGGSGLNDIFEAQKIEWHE

fold change of affinity [fold]	Binder
1.4	H183/L072 VL L33Q (antibody, name in Kabat numbering, V domains shown, Dual-Ig) VH: QVQLVESGGGLVQPGRSLRLSCAASGFTFSNAWMHWVRQAPGKGLEWVAQIKDKGNAYAAYYAPSVKGRFTISRDDSKNSIYLQMNSLKTEDTAVYYCHYVHYASASTVLPAFGVDAWGQGTTVTVSS VL: DIVMTQSPLSLPVTPGEPASISCQASQELVHMNRNTYQHWYQQKPGQAPRLLIYKVSNRFPGVPDRFSGSGSGTDFTLKISRVEAEDVGVYYCAQGTSVPFTFGQGTKLEIK
0.2	H183/L072 VL L33P (antibody, name in Kabat numbering, V domains shown, Dual-Ig) VH: QVQLVESGGGLVQPGRSLRLSCAASGFTFSNAWMHWVRQAPGKGLEWVAQIKDKGNAYAAYYAPSVKGRFTISRDDSKNSIYLQMNSLKTEDTAVYYCHYVHYASASTVLPAFGVDAWGQGTTVTVSS VL: DIVMTQSPLSLPVTPGEPASISCQASQELVHMNRNTYPHWYQQKPGQAPRLLIYKVSNRFPGVPDRFSGSGSGTDFTLKISRVEAEDVGVYYCAQGTSVPFTFGQGTKLEIK
0.9	H183/L072 VL L33M (antibody, name in Kabat numbering, V domains shown, Dual-Ig) VH: QVQLVESGGGLVQPGRSLRLSCAASGFTFSNAWMHWVRQAPGKGLEWVAQIKDKGNAYAAYYAPSVKGRFTISRDDSKNSIYLQMNSLKTEDTAVYYCHYVHYASASTVLPAFGVDAWGQGTTVTVSS VL: DIVMTQSPLSLPVTPGEPASISCQASQELVHMNRNTYMHWYQQKPGQAPRLLIYKVSNRFPGVPDRFSGSGSGTDFTLKISRVEAEDVGVYYCAQGTSVPFTFGQGTKLEIK
0.1	H183/L072 VL L33N (antibody, name in Kabat numbering, V domains shown, Dual-Ig) VH: QVQLVESGGGLVQPGRSLRLSCAASGFTFSNAWMHWVRQAPGKGLEWVAQIKDKGNAYAAYYAPSVKGRFTISRDDSKNSIYLQMNSLKTEDTAVYYCHYVHYASASTVLPAFGVDAWGQGTTVTVSS VL: DIVMTQSPLSLPVTPGEPASISCQASQELVHMNRNTYNHWYQQKPGQAPRLLIYKVSNRFPGVPDRFSGSGSGTDFTLKISRVEAEDVGVYYCAQGTSVPFTFGQGTKLEIK
0.1	H183/L072 VL L33I (antibody, name in Kabat numbering, V domains shown, Dual-Ig) VH: QVQLVESGGGLVQPGRSLRLSCAASGFTFSNAWMHWVRQAPGKGLEWVAQIKDKGNAYAAYYAPSVKGRFTISRDDSKNSIYLQMNSLKTEDTAVYYCHYVHYASASTVLPAFGVDAWGQGTTVTVSS VL: DIVMTQSPLSLPVTPGEPASISCQASQELVHMNRNTYIHWYQQKPGQAPRLLIYKVSNRFPGVPDRFSGSGSGTDFTLKISRVEAEDVGVYYCAQGTSVPFTFGQGTKLEIK
0.1	H183/L072 VL L33W (antibody, name in Kabat numbering, V domains shown, Dual-Ig) VH: QVQLVESGGGLVQPGRSLRLSCAASGFTFSNAWMHWVRQAPGKGLEWVAQIKDKGNAYAAYYAPSVKGRFTISRDDSKNSIYLQMNSLKTEDTAVYYCHYVHYASASTVLPAFGVDAWGQGTTVTVSS VL: DIVMTQSPLSLPVTPGEPASISCQASQELVHMNRNTYWHWYQQKPGQAPRLLIYKVSNRFPGVPDRFSGSGSGTDFTLKISRVEAEDVGVYYCAQGTSVPFTFGQGTKLEIK
0.6	H183/L072 VL L33V (antibody, name in Kabat numbering, V domains shown, Dual-Ig) VH: QVQLVESGGGLVQPGRSLRLSCAASGFTFSNAWMHWVRQAPGKGLEWVAQIKDKGNAYAAYYAPSVKGRFTISRDDSKNSIYLQMNSLKTEDTAVYYCHYVHYASASTVLPAFGVDAWGQGTTVTVSS VL: DIVMTQSPLSLPVTPGEPASISCQASQELVHMNRNTYVHWYQQKPGQAPRLLIYKVSNRFPGVPDRFSGSGSGTDFTLKISRVEAEDVGVYYCAQGTSVPFTFGQGTKLEIK
0.2	H183/L072 VL L33T (antibody, name in Kabat numbering, V domains shown, Dual-Ig) VH: QVQLVESGGGLVQPGRSLRLSCAASGFTFSNAWMHWVRQAPGKGLEWVAQIKDKGNAYAAYYAPSVKGRFTISRDDSKNSIYLQMNSLKTEDTAVYYCHYVHYASASTVLPAFGVDAWGQGTTVTVSS VL: DIVMTQSPLSLPVTPGEPASISCQASQELVHMNRNTYTHWYQQKPGQAPRLLIYKVSNRFPGVPDRFSGSGSGTDFTLKISRVEAEDVGVYYCAQGTSVPFTFGQGTKLEIK

Continued, binder first:

Binder	fold change of affinity [fold]
H183/L072 VL L27bK (antibody, name in Kabat numbering, V domains shown, Dual-Ig) VH: QVQLVESGGGLVQPGRSLRLSCAASGFTFSNAWMHWVRQAPGKGLEWVAQIKDKGNAYAAYYAPSVKGRFTISRDDSKNSIYLQMNSLKTEDTAVYYCHYVHYASASTVLPAFGVDAWGQGTTVTVSS VL: DIVMTQSPLSLPVTPGEPASISCQASQEKVHMNRNTYLHWYQQKPGQAPRLLIYKVSNRFPGVPDRFSGSGSGTDFTLKISRVEAEDVGVYYCAQGTSVPFTFGQGTKLEIK	0.3
H183/L072 VL L27bT (antibody, name in Kabat numbering, V domains shown, Dual-Ig) VH: QVQLVESGGGLVQPGRSLRLSCAASGFTFSNAWMHWVRQAPGKGLEWVAQIKDKGNAYAAYYAPSVKGRFTISRDDSKNSIYLQMNSLKTEDTAVYYCHYVHYASASTVLPAFGVDAWGQGTTVTVSS VL: DIVMTQSPLSLPVTPGEPASISCQASQETVHMNRNTYLHWYQQKPGQAPRLLIYKVSNRFPGVPDRFSGSGSGTDFTLKISRVEAEDVGVYYCAQGTSVPFTFGQGTKLEIK	0.4
H183/L072 VL L33F (antibody, name in Kabat numbering, V domains shown, Dual-Ig) VH: QVQLVESGGGLVQPGRSLRLSCAASGFTFSNAWMHWVRQAPGKGLEWVAQIKDKGNAYAAYYAPSVKGRFTISRDDSKNSIYLQMNSLKTEDTAVYYCHYVHYASASTVLPAFGVDAWGQGTTVTVSS VL: DIVMTQSPLSLPVTPGEPASISCQASQELVHMNRNTYFHWYQQKPGQAPRLLIYKVSNRFPGVPDRFSGSGSGTDFTLKISRVEAEDVGVYYCAQGTSVPFTFGQGTKLEIK	0.3
H183/L072 VL L27bS (antibody, name in Kabat numbering, V domains shown, Dual-Ig) VH: QVQLVESGGGLVQPGRSLRLSCAASGFTFSNAWMHWVRQAPGKGLEWVAQIKDKGNAYAAYYAPSVKGRFTISRDDSKNSIYLQMNSLKTEDTAVYYCHYVHYASASTVLPAFGVDAWGQGTTVTVSS VL: DIVMTQSPLSLPVTPGEPASISCQASQESVHMNRNTYLHWYQQKPGQAPRLLIYKVSNRFPGVPDRFSGSGSGTDFTLKISRVEAEDVGVYYCAQGTSVPFTFGQGTKLEIK	0.3
H183/L072 VL L33G (antibody, name in Kabat numbering, V domains shown, Dual-Ig) VH: QVQLVESGGGLVQPGRSLRLSCAASGFTFSNAWMHWVRQAPGKGLEWVAQIKDKGNAYAAYYAPSVKGRFTISRDDSKNSIYLQMNSLKTEDTAVYYCHYVHYASASTVLPAFGVDAWGQGTTVTVSS VL: DIVMTQSPLSLPVTPGEPASISCQASQELVHMNRNTYGHWYQQKPGQAPRLLIYKVSNRFPGVPDRFSGSGSGTDFTLKISRVEAEDVGVYYCAQGTSVPFTFGQGTKLEIK	0.1
H183/L072 VL L27bP (antibody, name in Kabat numbering, V domains shown, Dual-Ig) VH: QVQLVESGGGLVQPGRSLRLSCAASGFTFSNAWMHWVRQAPGKGLEWVAQIKDKGNAYAAYYAPSVKGRFTISRDDSKNSIYLQMNSLKTEDTAVYYCHYVHYASASTVLPAFGVDAWGQGTTVTVSS VL: DIVMTQSPLSLPVTPGEPASISCQASQEPVHMNRNTYLHWYQQKPGQAPRLLIYKVSNRFPGVPDRFSGSGSGTDFTLKISRVEAEDVGVYYCAQGTSVPFTFGQGTKLEIK	0.8
H183/L072 VL L33E (antibody, name in Kabat numbering, V domains shown, Dual-Ig) VH: QVQLVESGGGLVQPGRSLRLSCAASGFTFSNAWMHWVRQAPGKGLEWVAQIKDKGNAYAAYYAPSVKGRFTISRDDSKNSIYLQMNSLKTEDTAVYYCHYVHYASASTVLPAFGVDAWGQGTTVTVSS VL: DIVMTQSPLSLPVTPGEPASISCQASQELVHMNRNTYEHWYQQKPGQAPRLLIYKVSNRFPGVPDRFSGSGSGTDFTLKISRVEAEDVGVYYCAQGTSVPFTFGQGTKLEIK	0.1
H183/L072 VL L27bV (antibody, name in Kabat numbering, V domains shown, Dual-Ig) VH: QVQLVESGGGLVQPGRSLRLSCAASGFTFSNAWMHWVRQAPGKGLEWVAQIKDKGNAYAAYYAPSVKGRFTISRDDSKNSIYLQMNSLKTEDTAVYYCHYVHYASASTVLPAFGVDAWGQGTTVTVSS VL: DIVMTQSPLSLPVTPGEPASISCQASQEVVHMNRNTYLHWYQQKPGQAPRLLIYKVSNRFPGVPDRFSGSGSGTDFTLKISRVEAEDVGVYYCAQGTSVPFTFGQGTKLEIK	1.1
H183/L072 VL L27bQ (antibody, name in Kabat numbering, V domains shown, Dual-Ig) VH: QVQLVESGGGLVQPGRSLRLSCAASGFTFSNAWMHWVRQAPGKGLEWVAQIKDKGNAYAAYYAPSVKGRFTISRDDSKNSIYLQMNSLKTEDTAVYYCHYVHYASASTVLPAFGVDAWGQGTTVTVSS VL: DIVMTQSPLSLPVTPGEPASISCQASQEQVHMNRNTYLHWYQQKPGQAPRLLIYKVSNRFPGVPDRFSGSGSGTDFTLKISRVEAEDVGVYYCAQGTSVPFTFGQGTKLEIK	0.2
H183/L072 VL L33H (antibody, name in Kabat numbering, V domains shown, Dual-Ig) VH: QVQLVESGGGLVQPGRSLRLSCAASGFTFSNAWMHWVRQAPGKGLEWVAQIKDKGNAYAAYYAPSVKGRFTISRDDSKNSIYLQMNSLKTEDTAVYYCHYVHYASASTVLPAFGVDAWGQGTTVTVSS VL: DIVMTQSPLSLPVTPGEPASISCQASQELVHMNRNTYHHWYQQKPGQAPRLLIYKVSNRFPGVPDRFSGSGSGTDFTLKISRVEAEDVGVYYCAQGTSVPFTFGQGTKLEIK	0.9
H183/L072 VL L33A (antibody, name in Kabat numbering, V domains shown, Dual-Ig) VH: QVQLVESGGGLVQPGRSLRLSCAASGFTFSNAWMHWVRQAPGKGLEWVAQIKDKGNAYAAYYAPSVKGRFTISRDDSKNSIYLQMNSLKTEDTAVYYCHYVHYASASTVLPAFGVDAWGQGTTVTVSS VL: DIVMTQSPLSLPVTPGEPASISCQASQELVHMNRNTYAHWYQQKPGQAPRLLIYKVSNRFPGVPDRFSGSGSGTDFTLKISRVEAEDVGVYYCAQGTSVPFTFGQGTKLEIK	0.9
H183/L072 VL L27bW (antibody, name in Kabat numbering, V domains shown, Dual-Ig) VH: QVQLVESGGGLVQPGRSLRLSCAASGFTFSNAWMHWVRQAPGKGLEWVAQIKDKGNAYAAYYAPSVKGRFTISRDDSKNSIYLQMNSLKTEDTAVYYCHYVHYASASTVLPAFGVDAWGQGTTVTVSS VL: DIVMTQSPLSLPVTPGEPASISCQASQEWVHMNRNTYLHWYQQKPGQAPRLLIYKVSNRFPGVPDRFSGSGSGTDFTLKISRVEAEDVGVYYCAQGTSVPFTFGQGTKLEIK	0.3
H183/L072 VL L27bM (antibody, name in Kabat numbering, V domains shown, Dual-Ig) VH: QVQLVESGGGLVQPGRSLRLSCAASGFTFSNAWMHWVRQAPGKGLEWVAQIKDKGNAYAAYYAPSVKGRFTISRDDSKNSIYLQMNSLKTEDTAVYYCHYVHYASASTVLPAFGVDAWGQGTTVTVSS VL: DIVMTQSPLSLPVTPGEPASISCQASQEMVHMNRNTYLHWYQQKPGQAPRLLIYKVSNRFPGVPDRFSGSGSGTDFTLKISRVEAEDVGVYYCAQGTSVPFTFGQGTKLEIK	0.4
